Here are results for eight sequences from the supplement of paper PMC10065799, “High-throughput profiling of sequence recognition by tyrosine kinases and SH2 domains using bacterial peptide display” (eLife, 2023).

Data set [1] concerns the target Fes (UniProt P07332). Put plainly: phosphorylation enrichment, bacterial display (enrichment ratio); higher = better substrate or ligand; peptides without Tyr show the background.
Data set [2] addresses EPHB2 (UniProt P29323). The description is as above.
Data set [3] relates to AncSZ. The data set is described as above.
The subject of data set [4] is Fer (mouse). The data set is described as above.
Data set [5] deals with MERTK (UniProt Q12866). The description is as above.
In data set [6] the test system is c-Src. The data set is described as above.
The target of data set [7] is FGFR1 (UniProt P11362). Described as above.
The target in data set [8] is Fyn (UniProt P06241). Described as above.
For data set [9], the system named is c-Abl (mouse). Described as above.
Data set [10] deals with FGFR3 (UniProt P22607). The description is as above.
Data set [11] concerns the target Hck (UniProt P08631). The description is as above.
Data set [12] deals with Jak2 (UniProt O60674). Described as above.
Data set [13] deals with EPHB1 (UniProt P54762). The data set is described as above.
Data set [14] has as its target Grb2 SH2 (UniProt P62993). Description: SH2 binding enrichment of the phosphorylated peptide, bacterial display (enrichment ratio); higher = better substrate or ligand; peptides without Tyr show the background.
The target in data set [15] is c-Src SH2. The data set is described as above.
In data set [16] the target is SHP2-C SH2. The data set is described as above.
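Wherever SH2 binding enrichment of the phosphorylated peptide, bacterial display is given: peptide library displayed on the E. coli surface as eCPX fusions, selected cells deep-sequenced, score is each peptide's frequency after selection divided by its frequency in the input.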
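Wherever phosphorylation enrichment, bacterial display is given: 11-residue human phosphosite peptides and single-mutation variants displayed on the E. coli surface, counted by deep sequencing, each peptide's frequency after selection divided by its frequency in the unselected input library; frequency after pTyr selection over input frequency; kinase dosed for 20-30% of maximal phosphorylation in three min.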

Chain of MERTK (Q12866 whole entry, looked up): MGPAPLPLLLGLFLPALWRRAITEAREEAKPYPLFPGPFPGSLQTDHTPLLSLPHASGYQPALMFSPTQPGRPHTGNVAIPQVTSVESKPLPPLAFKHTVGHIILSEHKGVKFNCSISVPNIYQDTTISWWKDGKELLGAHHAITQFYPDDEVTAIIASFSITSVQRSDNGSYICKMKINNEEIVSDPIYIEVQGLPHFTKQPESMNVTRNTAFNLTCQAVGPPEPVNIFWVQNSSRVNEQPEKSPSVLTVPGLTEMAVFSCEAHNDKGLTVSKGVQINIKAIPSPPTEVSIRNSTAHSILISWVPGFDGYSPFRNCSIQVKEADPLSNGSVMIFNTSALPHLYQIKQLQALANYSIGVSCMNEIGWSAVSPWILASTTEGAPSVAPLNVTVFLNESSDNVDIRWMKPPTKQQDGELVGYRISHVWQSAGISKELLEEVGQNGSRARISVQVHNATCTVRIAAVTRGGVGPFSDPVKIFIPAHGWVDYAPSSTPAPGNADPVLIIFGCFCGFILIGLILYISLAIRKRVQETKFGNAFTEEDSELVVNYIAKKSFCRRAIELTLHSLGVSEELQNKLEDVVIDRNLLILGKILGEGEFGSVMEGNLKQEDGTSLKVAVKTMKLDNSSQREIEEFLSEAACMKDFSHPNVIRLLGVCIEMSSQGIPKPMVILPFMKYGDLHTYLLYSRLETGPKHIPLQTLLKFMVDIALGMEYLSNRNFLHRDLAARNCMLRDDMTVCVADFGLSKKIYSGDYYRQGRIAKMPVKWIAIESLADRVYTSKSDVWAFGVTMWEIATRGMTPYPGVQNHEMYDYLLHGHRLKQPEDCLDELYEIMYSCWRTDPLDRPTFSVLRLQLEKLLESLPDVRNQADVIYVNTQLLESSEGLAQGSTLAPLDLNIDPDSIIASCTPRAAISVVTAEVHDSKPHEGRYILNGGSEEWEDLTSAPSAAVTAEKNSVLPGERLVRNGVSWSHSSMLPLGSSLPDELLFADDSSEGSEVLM
Chain of Jak2 (O60674 whole entry, looked up): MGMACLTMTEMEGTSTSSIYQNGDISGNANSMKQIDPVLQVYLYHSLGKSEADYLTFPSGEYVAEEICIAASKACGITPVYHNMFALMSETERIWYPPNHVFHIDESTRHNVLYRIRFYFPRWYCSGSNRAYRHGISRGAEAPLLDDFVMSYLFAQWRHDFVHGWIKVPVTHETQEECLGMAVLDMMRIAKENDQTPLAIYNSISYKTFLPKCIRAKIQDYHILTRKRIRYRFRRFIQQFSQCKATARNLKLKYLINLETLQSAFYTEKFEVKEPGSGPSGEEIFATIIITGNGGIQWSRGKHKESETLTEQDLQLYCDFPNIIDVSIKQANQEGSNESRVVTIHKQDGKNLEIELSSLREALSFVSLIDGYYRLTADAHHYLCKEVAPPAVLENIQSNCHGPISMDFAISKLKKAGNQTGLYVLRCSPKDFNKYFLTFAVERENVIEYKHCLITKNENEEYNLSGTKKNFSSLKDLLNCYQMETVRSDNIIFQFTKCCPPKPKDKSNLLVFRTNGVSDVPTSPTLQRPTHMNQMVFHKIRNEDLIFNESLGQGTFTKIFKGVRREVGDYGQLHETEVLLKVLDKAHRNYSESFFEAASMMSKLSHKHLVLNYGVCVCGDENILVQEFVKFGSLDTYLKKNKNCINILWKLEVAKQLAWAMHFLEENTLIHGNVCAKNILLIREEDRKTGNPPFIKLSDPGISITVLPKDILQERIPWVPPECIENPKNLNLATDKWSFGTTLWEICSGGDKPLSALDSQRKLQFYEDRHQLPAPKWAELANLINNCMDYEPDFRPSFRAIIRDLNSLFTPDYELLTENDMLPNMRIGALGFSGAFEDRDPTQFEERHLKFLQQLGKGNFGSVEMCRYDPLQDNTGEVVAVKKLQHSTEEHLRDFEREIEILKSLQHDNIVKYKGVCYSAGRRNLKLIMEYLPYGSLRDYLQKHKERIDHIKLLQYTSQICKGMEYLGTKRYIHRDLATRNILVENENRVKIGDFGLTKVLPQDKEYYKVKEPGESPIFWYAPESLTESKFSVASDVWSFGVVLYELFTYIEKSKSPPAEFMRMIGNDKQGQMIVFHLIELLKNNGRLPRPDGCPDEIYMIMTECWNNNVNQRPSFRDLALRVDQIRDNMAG
Chain of Grb2 SH2 (P62993 whole entry, looked up): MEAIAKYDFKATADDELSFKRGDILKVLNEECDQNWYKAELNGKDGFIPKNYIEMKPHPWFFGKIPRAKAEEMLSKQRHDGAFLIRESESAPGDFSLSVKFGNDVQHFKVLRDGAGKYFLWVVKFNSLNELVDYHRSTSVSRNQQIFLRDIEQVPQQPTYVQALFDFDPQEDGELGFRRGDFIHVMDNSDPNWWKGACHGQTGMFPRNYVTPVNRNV
Chain of FGFR3 (P22607 whole entry, looked up): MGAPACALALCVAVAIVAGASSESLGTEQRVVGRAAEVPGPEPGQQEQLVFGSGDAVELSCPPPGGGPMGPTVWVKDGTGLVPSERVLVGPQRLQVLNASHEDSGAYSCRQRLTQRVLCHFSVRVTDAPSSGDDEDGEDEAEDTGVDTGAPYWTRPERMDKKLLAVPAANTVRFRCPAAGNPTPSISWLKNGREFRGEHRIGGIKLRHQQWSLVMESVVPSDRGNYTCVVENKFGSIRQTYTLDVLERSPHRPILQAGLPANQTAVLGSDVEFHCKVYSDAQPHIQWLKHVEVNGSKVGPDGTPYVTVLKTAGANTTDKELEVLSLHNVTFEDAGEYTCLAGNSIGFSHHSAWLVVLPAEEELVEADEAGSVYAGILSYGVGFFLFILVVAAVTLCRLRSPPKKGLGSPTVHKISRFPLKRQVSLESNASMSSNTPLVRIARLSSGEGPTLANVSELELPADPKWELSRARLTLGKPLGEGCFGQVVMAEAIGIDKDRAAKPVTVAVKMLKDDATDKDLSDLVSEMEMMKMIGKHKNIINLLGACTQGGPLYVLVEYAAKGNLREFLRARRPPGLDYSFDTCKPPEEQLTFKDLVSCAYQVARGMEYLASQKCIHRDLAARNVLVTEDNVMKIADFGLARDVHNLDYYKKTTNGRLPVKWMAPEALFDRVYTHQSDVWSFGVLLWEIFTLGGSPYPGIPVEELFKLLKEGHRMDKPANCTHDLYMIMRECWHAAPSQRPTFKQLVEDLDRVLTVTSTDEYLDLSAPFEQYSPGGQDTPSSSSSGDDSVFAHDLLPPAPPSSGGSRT
Chain of Fes (P07332 whole entry, looked up): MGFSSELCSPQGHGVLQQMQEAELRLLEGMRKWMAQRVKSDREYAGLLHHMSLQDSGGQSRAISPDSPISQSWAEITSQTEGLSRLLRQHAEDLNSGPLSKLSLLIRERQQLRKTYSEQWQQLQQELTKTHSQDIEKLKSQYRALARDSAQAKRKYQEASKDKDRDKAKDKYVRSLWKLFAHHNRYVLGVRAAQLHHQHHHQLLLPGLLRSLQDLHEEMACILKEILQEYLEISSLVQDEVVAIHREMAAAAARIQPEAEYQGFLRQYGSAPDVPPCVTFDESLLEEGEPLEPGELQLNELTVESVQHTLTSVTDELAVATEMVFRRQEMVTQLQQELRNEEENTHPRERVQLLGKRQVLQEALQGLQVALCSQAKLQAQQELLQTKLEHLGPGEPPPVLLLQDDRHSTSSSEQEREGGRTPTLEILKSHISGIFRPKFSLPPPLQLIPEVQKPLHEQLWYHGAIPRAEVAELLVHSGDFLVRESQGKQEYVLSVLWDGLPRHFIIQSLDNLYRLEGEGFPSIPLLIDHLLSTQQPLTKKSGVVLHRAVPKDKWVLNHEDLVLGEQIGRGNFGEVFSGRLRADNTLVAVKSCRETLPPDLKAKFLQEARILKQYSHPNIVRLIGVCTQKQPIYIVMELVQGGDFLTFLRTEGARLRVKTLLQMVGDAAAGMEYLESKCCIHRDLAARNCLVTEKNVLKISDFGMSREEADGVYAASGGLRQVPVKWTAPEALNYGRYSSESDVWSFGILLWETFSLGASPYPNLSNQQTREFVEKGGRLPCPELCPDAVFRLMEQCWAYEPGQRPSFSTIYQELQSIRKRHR
Chain of EPHB1 (P54762 whole entry, looked up): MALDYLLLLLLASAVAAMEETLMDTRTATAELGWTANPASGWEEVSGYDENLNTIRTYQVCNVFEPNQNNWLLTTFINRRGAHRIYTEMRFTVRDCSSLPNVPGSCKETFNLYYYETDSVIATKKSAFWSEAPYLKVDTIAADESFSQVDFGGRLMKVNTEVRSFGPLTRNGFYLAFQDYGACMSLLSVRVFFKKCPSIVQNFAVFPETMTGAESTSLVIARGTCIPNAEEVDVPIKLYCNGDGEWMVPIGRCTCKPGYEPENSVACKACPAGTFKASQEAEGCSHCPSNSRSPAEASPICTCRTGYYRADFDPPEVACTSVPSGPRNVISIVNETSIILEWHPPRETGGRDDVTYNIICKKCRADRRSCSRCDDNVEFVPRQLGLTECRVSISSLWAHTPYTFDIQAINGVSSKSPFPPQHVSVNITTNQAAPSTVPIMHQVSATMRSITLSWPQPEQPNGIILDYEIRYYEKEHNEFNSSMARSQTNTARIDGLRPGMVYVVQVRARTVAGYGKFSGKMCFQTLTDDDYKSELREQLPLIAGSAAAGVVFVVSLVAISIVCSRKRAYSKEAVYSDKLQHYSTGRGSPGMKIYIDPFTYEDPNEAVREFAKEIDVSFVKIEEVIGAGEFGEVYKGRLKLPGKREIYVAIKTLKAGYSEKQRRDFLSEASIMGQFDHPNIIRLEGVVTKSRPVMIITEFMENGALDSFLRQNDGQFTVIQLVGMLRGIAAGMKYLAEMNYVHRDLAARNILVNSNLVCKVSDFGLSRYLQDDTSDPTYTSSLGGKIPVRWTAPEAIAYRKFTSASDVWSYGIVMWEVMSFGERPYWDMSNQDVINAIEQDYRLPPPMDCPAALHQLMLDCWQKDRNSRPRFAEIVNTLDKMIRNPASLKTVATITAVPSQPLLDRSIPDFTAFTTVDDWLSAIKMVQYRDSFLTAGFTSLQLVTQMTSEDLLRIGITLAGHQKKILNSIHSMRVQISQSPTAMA

As to SVTCTYFPALN [TP53_Y126_S127F], the phosphorylation enrichment in data set [1] is 1.82; in data set [2], 0.669; in data set [3], 1.68; in data set [4], 0.637; in data set [5], 0.608; in data set [6], 0.452. Moreover, the phosphorylation enrichment in data set [7] is 0.632; in data set [8], 0.487; in data set [9] it was 1.13; in [10], 1.01; in data set [11], 0.554; in [12], 1.64. Moreover, the phosphorylation enrichment in data set [13] came out at 0.83. The SH2 binding enrichment in [14] came to 0.721; in data set [15] it was 0.388; in data set [16] it was 0.747.

Take SVTCTYSPAVN [TP53_Y126_L130V]: the phosphorylation enrichment in [1] is 1.71; in data set [2] it was 0.746; in [3] it was 1.58; in data set [4] it was 0.646; in data set [5] it was 0.508; in [6] it was 0.662. Moreover, the phosphorylation enrichment worked out at 0.697 in [7]; 0.58 in data set [8]; 1.18 in data set [9]; 0.945 in [10]; 0.654 in data set [11]; 1.49 in data set [12]. In addition, the phosphorylation enrichment in data set [13] was determined as 0.77. Further, the SH2 binding enrichment in data set [14] came to 0.588; in [15], 0.369; in data set [16] it was 0.661.

Take SVVLPYEPPEV [TP53_Y220_V218L]: the phosphorylation enrichment in data set [1] is 1.12; in data set [2], 0.797; in data set [3] it was 1.47; in data set [4], 0.746; in [5], 0.47; in [6], 0.592. Further, the phosphorylation enrichment in data set [7] was found to be 0.538; in [8] it was 0.456; in [9] it was 0.945; in data set [10] it was 0.704; in data set [11] it was 0.518; in [12] it was 0.98. Also, the phosphorylation enrichment in data set [13] is 0.686. In addition, the SH2 binding enrichment in data set [14] came to 0.791; in data set [15] it was 0.963; in data set [16], 0.861.

For SVVVPNEPPEV [TP53_Y220_Y220N], the phosphorylation enrichment in data set [1] turned out to be 1.43; in [2], 0.665; in [3], 1.03; in [4], 0.691; in data set [5], 0.439; in data set [6], 0.517. Moreover, the phosphorylation enrichment in data set [7] was 0.63; in data set [8], 0.539; in [9], 0.711; in data set [10] it was 0.81; in data set [11], 0.581; in data set [12], 1.05. Moreover, the phosphorylation enrichment in data set [13] came to 0.645. The figures for the SH2 binding enrichment in data set [14], in data set [15] and in [16] were 0.825, 0.538 and 0.783, respectively.

For SYKNKYGMVAQ [APOB_Y276], the phosphorylation enrichment in [1] is 0.674; in data set [2], 0.333; in data set [3] it was 0.555; in data set [4] it was 0.398; in [5], 0.335; in [6] it was 0.569. Moreover, the phosphorylation enrichment in data set [7] was 0.385; in [8], 0.367; in [9], 0.562; in data set [10], 0.385; in [11], 0.442; in data set [12], 0.483. Further, the phosphorylation enrichment in [13] came to 0.333. For the same sequence, the SH2 binding enrichment came to 1.01 in data set [14], 0.613 in [15] and 0.786 in [16].

As for SYPHEYGSQEG [RBM10_Y48_R46H], the phosphorylation enrichment was found to be 0.87 in [1]; 0.44 in data set [2]; 0.835 in data set [3]; 0.411 in data set [4]; 0.465 in [5]; 0.415 in data set [6]. Further, the phosphorylation enrichment was determined as 0.54 in data set [7]; 0.402 in data set [8]; 0.591 in data set [9]; 0.559 in [10]; 0.458 in data set [11]; 0.767 in [12]. For the same sequence, the phosphorylation enrichment in data set [13] was found to be 0.483. For the same sequence, the SH2 binding enrichment in data set [14] was 0.825; in [15], 0.441; in data set [16], 0.699.

Consider TAIFIYIRPKA [OR10C1_Y258_L255I], for which the phosphorylation enrichment in data set [1] came out at 1.39; in data set [2], 0.68; in data set [3], 1.79; in data set [4], 0.584; in data set [5], 0.387; in data set [6], 0.521. Moreover, the phosphorylation enrichment was 0.518 in data set [7]; 0.615 in [8]; 0.641 in [9]; 0.814 in data set [10]; 0.481 in data set [11]; 1.46 in [12]. For the same sequence, the phosphorylation enrichment in data set [13] turned out to be 0.414. Further, the figures for the SH2 binding enrichment in [14], in [15] and in [16] were 1.17, 0.522 and 0.796, respectively.

TEGNEYVFRVA: the phosphorylation enrichment in data set [1] was 1.28; in [2], 0.627; in data set [3] it was 1.08; in data set [4] it was 0.44; in data set [5], 0.421; in [6], 0.528. The phosphorylation enrichment stood at 0.647 in [7]; 0.583 in [8]; 0.647 in data set [9]; 0.822 in [10]; 0.486 in data set [11]; 0.949 in [12]. In addition, the phosphorylation enrichment in data set [13] turned out to be 0.593. The SH2 binding enrichment is 0.708 in [14], 0.493 in data set [15] and 0.69 in [16].
